Among the data in patent EP4737479A1 (Bio-Thera Solutions, Ltd., dated 2026) are Kd, koff and kon values, retold here.

What is called Kd is a measure of binding affinity in units of concentration. Read a low Kd as a tighter complex. By koff is commonly meant the rate constant with which the complex falls apart. A higher koff goes with a short-lived complex. By kon is commonly meant the second-order rate constant of association. A higher kon goes with fast association.

The target of this experiment is T1, antigen 4-1BB (Sino Biological, Cat. No. 10041-H08H) (UniProt Q07011 24-186).
T1 construct: Bought protein used as SPR analyte; also called CD137
T1 sequence (Q07011 24-186 limits assumed): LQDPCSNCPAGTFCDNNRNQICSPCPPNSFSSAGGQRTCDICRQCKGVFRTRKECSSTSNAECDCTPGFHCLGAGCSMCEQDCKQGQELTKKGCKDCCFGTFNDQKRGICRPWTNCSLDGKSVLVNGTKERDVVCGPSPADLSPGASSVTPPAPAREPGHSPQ
As to the kind of experiment: SPR (Biacore T200), sample captured on the chip by Fc, 4-1BB as analyte.

B1: Urelumab (antibody, V domains shown)
VH: QVQLQQWGAGLLKPSETLSLTCAVYGGSFSGYYWSWIRQSPEKGLEWIGEINHGGYVTYNPSLESRVTISVDTSKNQFSLKLSSVTAADTAVYYCARDYGPGNYDWYFDLWGRGTLVTVSS
VL: EIVLTQSPATLSLSPGERATLSCRASQSVSSYLAWYQQKPGQAPRLLIYDASNRATGIPARFSGSGSGTDFTLTISSLEPEDFAVYYCQQRSNWPPALTFGGGTKVEIK
For B1, the affinity, expressed as Kd, was 3.22 nM; the koff is 0.00159 s⁻¹; the kon amounted to 496000 M⁻¹ s⁻¹.
